± gives the standard deviation.
Assay: protein stability index of a GFP-peptide fusion (GPS, HEK-293T) (PSI 1-6); higher = more stable
[1] = treatment: DMSO, c terminus: a fixed tail appended
[2] = treatment: MLN4924 1 uM, 8 h, c terminus: a fixed tail appended
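Note: 24-mer peptide tiles fused after GFP, lentivirally expressed, FACS-sorted into six equal bins by GFP/DsRed ratio, decoded by Illumina sequencing, PSI is the read-weighted mean bin number.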

Sequence | protein stability index [1] | protein stability index [2] | protein stability index (treatment: DMSO, c terminus: native) | protein stability index (treatment: MLN4924 1 uM, 8 h, c terminus: native)
IHKASATIIEPAGESDNPLRFTSG [INTS4] | 4.03 ± 0.33 | 4.15 ± 0.25 |  | 
VMSEGLGMRYAFIGPLETMHLNAE [CRYL1] | 2.05 ± 0.23 | 2.05 ± 0.4 |  | 
QHKCDECGKSFTQSSGLIRHQRIH [ZSCAN9] | 5.26 ± 0.19 | 5.28 ± 0.12 |  | 
EEEEGTRSPTLEPPRGRSEAPDSL [SMG5] | 5.44 ± 0.14 | 5.68 ± 0.25 |  | 
VEGRHLYVLEFSDHPGIHEPLEPE [CPN1] | 3.04 ± 0.23 | 3.28 ± 0.33 |  | 
QEIEDKMKGFSFKEDTLLLIAEVM [C8orf76] | 2.54 ± 0.68 | 2.16 ± 0.44 |  | 
ICDKHWTAKNSRVVCGMFGFPGER [LOXL2] | 2.42 ± 0.34 | 2.42 ± 0.35 |  | 
DRAPAEQVPRSPVIKISYSTPQGK [PWWP2B] | 4.44 ± 0.29 | 4.52 ± 0.3 |  | 
LGIHEDSTNRRRLSELLRYHTSQS [HSP90AB1] | 3.5 ± 0.22 | 3.71 ± 0.24 |  | 
IVPNSNGVITTTPTPPGQYFYPRG [JUNB] | 3.16 ± 0.27 | 3.35 ± 0.2 |  | 
LSRHSKGLQILGHTLRASMRELGL [KCNA4] | 2.25 ± 0.21 | 2.25 ± 0.024 |  | 
GASLRLAVEDGLQQFKQYSRHVTT [M1AP] | 3.06 ± 0.15 | 3.19 ± 0.43 |  | 
TCQRVNGIKVQNGGIVTDTPASNH [SLC19A2] | 4.08 ± 0.34 | 4.22 ± 0.17 |  | 
IDIIPNPQERTLTLVDTGIGMTKA [HSP90AB1] | 3.55 ± 0.19 | 3.43 ± 0.51 |  | 
CWKMLSPGFDSSVYSDLCEAAEAV [ADAMTSL2] | 2.69 ± 0.34 | 3.16 ± 0.71 |  | 
TTRHGEVGSALHRESFTSRQKTSG [C10orf62] | 4.75 ± 0.38 | 4.78 ± 0.083 |  | 
MDALQLANSAFAVDLFKQLCEKEP [SERPINB5] | 3.5 ± 0.36 | 3.53 ± 0.16 |  | 
HTLAVMNDRLYAIGGNHLKGFSHL [KLHL14] | 2.22 ± 0.12 | 2.18 ± 0.11 |  | 
NEIESRHRELLRLESRIRDVHELF [STX11] | 3.54 ± 0.21 | 3.65 ± 0.22 |  | 
ACYAGAAPAPSQVKSKAKKTVDKH [CEBPB] | 4.95 ± 0.33 | 5.09 ± 0.39 |  | 
FSKSKELHPDRDPGNPSLHSRFVE [DNAJC4] | 3.91 ± 0.25 | 4.22 ± 0.12 |  | 
VAAGVLCELAQDKEAAEAIEAEGA [CTNNB1] | 5.31 ± 0.12 | 5.44 ± 0.12 |  | 
DRLQVFHKRAIMPYGVYKKQQKDP [ATE1] | 3.17 ± 0.39 | 3.34 ± 0.22 |  | 

Sequence | protein stability index [1] | protein stability index [2] | protein stability index (treatment: DMSO, c terminus: native) | protein stability index (treatment: MLN4924 1 uM, 8 h, c terminus: native)
VQGLEGIKMAMVACGDAFTVAIGA [NEK8] | 2.79 ± 0.71 | 2.95 ± 0.46 |  | 
ADISQMLVCTADGDIHLSPEEPAA [TAF7L] | 4.93 ± 0.17 | 4.94 ± 0.077 |  | 
KLKPHEEPLRSEILSGKFTILNVR [PTPN9] | 3.01 ± 0.14 | 2.96 ± 0.11 |  | 
ASKCKGAAVKLADFGLAIEVQGDQ [CAMK2B] | 3.5 ± 0.28 | 3.6 ± 0.37 |  | 
LNQIVTEPDANFPQFLHEGLSKPV [FAM104B] | 3.86 ± 0.039 | 3.7 ± 0.42 |  | 
GIEEVTYENCLQALADVEVKYIVE [NLN] | 3.29 ± 0.37 | 3.34 ± 0.34 |  | 
SSSKWQRRDYLLLVMEGTDDGRLL [APMAP] | 2.88 ± 0.43 | 2.32 ± 0.39 |  | 
PGSILYSSSGDLADLENEDIFPEL [DLC1] | 4.69 ± 0.14 | 4.77 ± 0.32 |  | 
RPFWEEEKTFWKEEKSFWEMEKSF [CCDC70] | 2.71 ± 0.2 | 3.19 ± 0.26 |  | 
IAQYALLGYFIRSWRTLAILVNLQ [SLC22A15] | 3.07 ± 0.51 | 2.78 ± 0.21 |  | 
SDLTLYLVVAVAAVSCVFLAFVIV [PCDHGA10] | 2.97 ± 0.61 | 2.71 ± 0.5 |  | 
LRLLVESDINSIRRILDELTLCKS [KRT34] | 2.22 ± 0.5 | 2.16 ± 0.12 |  | 
AEGALEEVPLEVLRQRESKWLDML [TBC1D10A] | 4.09 ± 0.88 | 3.91 ± 0.47 |  | 
DEDDEDEDEDEDEDEDEDKEEEEE [TAF7L] | 5.46 ± 0.4 | 5.51 ± 0.1 |  | 
APVSRGRDSYGGPPRREPLPSRRD [RBMX] | 5.12 ± 0.21 | 4.93 ± 0.22 |  | 
KKIEFGVVYSCVEGKMYTARKGKG [IMPA1] | 3.06 ± 0.075 | 3.24 ± 0.12 |  | 
KARDWFQGHLRRLRSRYSVASFKF [MYORG] | 2.21 ± 0.33 | 2.15 ± 0.29 |  | 
ICTRKPEEIRGGGLLKYCSLLVHG [TENT5D] | 2.24 ± 0.43 | 2.03 ± 0.3 |  | 
AFYDVTGGMSHLHTFRATFQEPLY [TRIM14] | 2.31 ± 0.25 | 2.41 ± 0.5 |  | 
FWRDWEDYAHGFGNISGEFWLGNE [TNXB] | 2.78 ± 0.9 | 2.46 ± 0.51 |  | 
DVTSLSSQLPDTPNSMVPSPVET [ISL2] |  |  | 4.24 ± 0.1 | 4.39 ± 0.34
LWSLFVPFTVYQVRWLRPVHRQLG [AUP1] | 2.82 ± 0.59 | 2.59 ± 0.69 |  | 
GGKSGGIVISPFRLEELTNRLASL [CCDC6] | 2.58 ± 0.33 | 2.69 ± 0.22 |  | 

Sequence | protein stability index [1] | protein stability index [2] | protein stability index (treatment: DMSO, c terminus: native) | protein stability index (treatment: MLN4924 1 uM, 8 h, c terminus: native)
GLRRLGLHRTEGELQKIVQAGDKD [SLC25A25] | 4.45 ± 0.12 | 4.82 ± 0.52 |  | 
VPRPGTPQSPPSCRAPPPEARGIR [FCHO1] | 4.85 ± 0.42 | 4.85 ± 0.14 |  | 
AKKKRLTKADIGTPSNFQHIGHVG [WASL] | 3.52 ± 0.3 | 3.67 ± 0.18 |  | 
HSLEYIDLMETTQYMNEGELRVLA [HDAC6] | 2.79 ± 0.4 | 3.04 ± 0.34 |  | 
LTASTMEILLDFVYTETVHVTVEN [KLHL12] | 2.9 ± 0.79 | 3.29 ± 1.4 |  | 
YNNRGQIKYFRVDFYEAMDDYTSA [TTC32] | 2.15 ± 0.29 | 2.35 ± 0.24 |  | 
AGIVRVFSGTPPPPVLSFRLVHTT [FCHO1] | 1.99 ± 0.07 | 2.13 ± 0.57 |  | 
SAARVVLTSLLACLPAGPRVYFLK [DUSP5] | 2.43 ± 0.23 | 2.41 ± 0.12 |  | 
MECQPESSISHRFHKDCASRVNNA [EHMT1] | 4.28 ± 0.38 | 4.15 ± 0.39 |  | 
VIASGSSVGHNNLIPLANTGIVNH [CARM1] | 3.11 ± 0.099 | 3.19 ± 0.23 |  | 
LEISGIIMSRVNAYQQGVGYQMLG [PHTF1] | 2.81 ± 0.35 | 2.63 ± 0.51 |  | 
AQRQACMYASSAPPSEPVPSLEDI [TBX5] | 4.92 ± 0.14 | 4.96 ± 0.077 |  | 
NNFREYNLHRVAAHELGHSLGLSH [MMP1] | 2.85 ± 0.22 | 3.01 ± 0.13 |  | 
FQQPAPEYHQPQAPANVAKIQLRL [LOXL2] | 2.81 ± 0.23 | 3.08 ± 0.28 |  | 
RHKSGVHQPPQAGAGDVVLLQREL [LYSMD4] | 4.08 ± 0.22 | 4.16 ± 0.092 |  | 
EEQSDQSFSSLEPDNEQLMEEVIS [IQUB] | 5.34 ± 0.27 | 5.61 ± 0.18 |  | 
STSGQPYPTSDQEGDPGSKQPRKK [LCOR] | 5.5 ± 0.13 | 5.42 ± 0.19 |  | 
RSDVEKGGKIIMPPSALDQLSRLN [UFD1] | 3.55 ± 0.41 | 3.97 ± 0.28 |  | 
IDKNRRKSCQACRLRKCYEVGMVK [ESR2] | 2.75 ± 0.34 | 3.08 ± 0.17 |  | 
KISYIGLMTQSSLETHHYVDCGGN [TMEM106C] | 2.48 ± 0.24 | 2.45 ± 0.24 |  | 
MSQALKATFSGFKKEQRRLGIPKN [ETS2] | 2.98 ± 0.29 | 3.08 ± 0.3 |  | 
TDLVQFLLFKYQMKEPITKAEILE [MAGEA10] | 2.48 ± 0.43 | 2.2 ± 0.23 |  | 
YRQDDPSYRSFHSGGYGQDALGMD [CTNNB1] | 3.89 ± 0.35 | 4.03 ± 0.14 |  | 

Sequence | protein stability index [1] | protein stability index [2] | protein stability index (treatment: DMSO, c terminus: native) | protein stability index (treatment: MLN4924 1 uM, 8 h, c terminus: native)
WEWSPAGLQSYQQALLRISLDKVQ [SERTAD3] | 2.48 ± 0.58 | 2.49 ± 0.69 |  | 
EKVNEGKYRSYEEFKADAQLLLHN [ZMYND11] | 4.1 ± 0.13 | 3.79 ± 0.28 |  | 
EEGILVAVGQDCYTRIWSLHDARL [DCAF4] | 2.26 ± 0.3 | 2.09 ± 0.31 |  | 
TSQKIAARAFAQRYLADLLPSVFG [RSPH3] | 2.12 ± 0.56 | 2.09 ± 0.18 |  | 
DILEVKRLLDHQDNILSLINVNDL [WDR41] | 2.24 ± 0.4 | 2.22 ± 0.25 |  | 
QPPRFPVPHNGSSEATLPAQMSTL [PDLIM4] | 4.67 ± 0.19 | 4.83 ± 0.089 |  | 
AGEFTGWEKVGSGGFGQVYKVRHV [RIPK4] | 2.46 ± 0.61 | 2.25 ± 0.29 |  | 
LQSYQAEIIELRRTVNALEIELQA [KRT33B] | 2.59 ± 0.54 | 2.27 ± 0.3 |  | 
ECGKAFSRSSILVQHQRVHTGEKP [ZNF24] | 3.78 ± 0.3 | 3.96 ± 0.14 |  | 
LRQQQHKQNKQVLGYCLLLMLAGM [DNAJC4] | 2.28 ± 0.48 | 2.41 ± 0.18 |  | 
HNQKVHMHMVDLMSSIICEGDTVS [PDS5B] | 2.46 ± 0.17 | 2.64 ± 0.26 |  | 
FLVRLLMAMAVMLYYSNFVLALEE [MFSD9] | 2.85 ± 0.14 | 3.02 ± 0.21 |  | 
ALVRWWNGIGAVLDFTHPKARDWF [MYORG] | 2.59 ± 0.52 | 2.3 ± 0.51 |  | 
PFGENAEFPADISSITEAVPSESE [NFE2L1] | 5.5 ± 0.28 | 5.25 ± 0.27 |  | 
FDVGGQRSERKKWIHCFEGVTAII [GNAI1] | 2.29 ± 0.44 | 1.95 ± 0.37 |  | 
FVRLFVDENLDRMVPISKQPKEKI [NOL4L] | 2.41 ± 0.098 | 2.65 ± 0.12 |  | 
VQRSPWLMMRMGILGRGLQEYQLP [TCAP] | 2.3 ± 0.17 | 2.21 ± 0.48 |  | 
VVDIFQTVKMLRTQRPAMVQTEDQ [PTPRD] | 3.23 ± 0.32 | 3.06 ± 0.27 |  | 
DYLSGVLILASELSRLSVNSVTAG [TSN] | 3.54 ± 0.61 | 2.68 ± 0.4 |  | 
MDVPGPVSRRAAAAAATVLLRTAR [SLC19A2] | 3.29 ± 0.23 | 3.42 ± 0.089 |  | 

Reference: the supplement of paper PMC10567573
